Our source for the EC50, binding result and Kd values is US20210403595 (published 2021).

Where a chain is given by its changes, count along the chain named.

First the molecules themselves.
T1: cynomolgus CD3 on T cells (cynomolgus monkey)
T1 chain: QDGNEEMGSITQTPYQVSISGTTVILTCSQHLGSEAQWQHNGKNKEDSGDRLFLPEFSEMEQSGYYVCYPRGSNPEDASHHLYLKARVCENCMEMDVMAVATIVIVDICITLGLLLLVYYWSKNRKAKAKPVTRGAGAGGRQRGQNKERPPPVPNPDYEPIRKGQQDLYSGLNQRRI

B1: BSPSMA/CD3-1700 CD3 arm (antibody, V domains shown)
VH: EVQLVESGGGLVQPGRSLRLSCAASGFTFDDYSMHWVRQAPGKGLEWVSGISWNSGSKGYADSVKGRFTISRDNAKNSLYLQMNSLRAEDTALYYCAKYGSGYGKFYYYGMDVWGQGTTVTVSS
VL: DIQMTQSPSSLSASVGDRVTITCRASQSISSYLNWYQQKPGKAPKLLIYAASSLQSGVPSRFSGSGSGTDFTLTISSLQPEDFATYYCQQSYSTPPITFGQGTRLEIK
B2: BSPSMA/CD3-1100 CD3 arm (antibody, V domains shown)
VH: B1 VH with Y108H
VL: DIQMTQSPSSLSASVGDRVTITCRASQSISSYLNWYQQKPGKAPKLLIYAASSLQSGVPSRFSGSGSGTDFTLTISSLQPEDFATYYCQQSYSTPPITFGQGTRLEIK
B3: BSPSMA/CD3-800 CD3 arm (antibody, V domains shown)
VH: B1 VH with K58I, Y108H, M111L
VL: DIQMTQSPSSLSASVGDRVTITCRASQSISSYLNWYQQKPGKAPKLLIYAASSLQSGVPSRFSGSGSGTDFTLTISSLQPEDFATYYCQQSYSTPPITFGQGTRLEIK
B4: BSPSMA/CD3-1400 CD3 arm (antibody, V domains shown)
VH: B1 VH with K58I, Y108H
VL: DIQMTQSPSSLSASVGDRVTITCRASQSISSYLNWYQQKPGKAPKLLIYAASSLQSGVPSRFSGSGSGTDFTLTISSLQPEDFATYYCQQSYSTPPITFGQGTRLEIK
B5: BSPSMA/CD3-005 CD3 arm (antibody, V domains shown)
VH: B1 VH with K58I
VL: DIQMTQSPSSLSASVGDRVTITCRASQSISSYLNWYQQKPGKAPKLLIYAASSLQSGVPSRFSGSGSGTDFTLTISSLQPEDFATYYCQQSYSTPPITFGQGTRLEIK
B6: BSPSMA/CD3-003 CD3 arm (antibody, V domains shown)
VH: B1 VH with Y108H, M111L
VL: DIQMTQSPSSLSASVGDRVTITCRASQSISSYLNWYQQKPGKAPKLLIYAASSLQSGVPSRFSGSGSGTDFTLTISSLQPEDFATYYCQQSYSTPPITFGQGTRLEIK
B7: BSPSMA/CD3-1300 CD3 arm (antibody, V domains shown)
VH: B1 VH with K58I, M111L
VL: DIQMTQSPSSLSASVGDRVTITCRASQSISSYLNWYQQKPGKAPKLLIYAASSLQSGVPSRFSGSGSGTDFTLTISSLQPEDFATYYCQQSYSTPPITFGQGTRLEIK
B8: BSPSMA/CD3-004 CD3 arm (antibody, V domains shown)
VH: B1 VH with K58I, Y99D
VL: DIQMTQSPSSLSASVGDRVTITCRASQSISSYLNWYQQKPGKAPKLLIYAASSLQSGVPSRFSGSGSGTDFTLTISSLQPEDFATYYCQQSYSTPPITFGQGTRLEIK
B9: BSPSMA/CD3-1800 CD3 arm (antibody, V domains shown)
VH: B1 VH with K58I, Y99D, M111L
VL: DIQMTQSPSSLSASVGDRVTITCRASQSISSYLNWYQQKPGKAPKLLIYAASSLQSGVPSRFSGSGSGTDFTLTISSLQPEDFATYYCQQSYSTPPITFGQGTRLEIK
B10: H2M3543N (antibody, V domains shown)
VH: EVQLVESGGGLVQPGRSLRLSCAASGFTFDDYTMHWVRQAPGKGLEWVSDISWNSGSIGYADSVKGRFTVSRDNAKNSLYLQMNSLRGEDTALYYCAKDMSGYAHYGYYGMDVWGQGTTVTVSS
VL: DIQMTQSPSSLSASVGDRVTITCRASQSIRNYLNWYQQKPGKVPKLLIYAASSLQSGVPSRFSGSGSGTDFTLTISSLQPEDFATYYCQQSYSNPPITFGQGTRLEIK
B11: H2M2778N (antibody, V domains shown)
VH: B1 VH with G56R, K58I, G59D, A97V, Y99D, G100N, K105R, F106Y, T121S
VL: KIVMTQSPATLSVSPGERATLSCRASQSVSGNLAWYQQKPGQAPRLLIYGASTRATSIPARFSGSGSGTEFTLTISSLQSEDFAVYFCQHYYNWPLTFGGGTKVEIR
B12: H2M2704N (antibody, V domains shown)
VH: QVQLVESGGGVVQPGRSLRLSCGASGFTFRSYGMHWVRQTPGRGLEWVAMIYYDGNNKYYADSVRGRFTVSRDNSKNTLYLQMSSLRAEDTALYFCARGPGYNWLDPWGQGTLVTVSS
VL: EIVMTQSPATLSVSPGERATLSCRASQSISRNLAWYQXKPGQAPRLLIYGASTRATGIPARFSGSGSGTEFTLTISSLQSEDFAVYYCQQYNNRPLTFGGGTEVEIK
modifications: not fully specified; listing feature
B13: H1H5777P (antibody, V domains shown)
VH: EVQLVESGGGLVQPGRSLRLSCAASGFTFDDYAMHWVRQAPGKGLEWVSGISWNSGSRDYADSVKGRFTISRDNARNSLFLQMNSLSTEDTALYYCAKDKSGYGSYYYGMDVWGQGTTVTVSS
VL: EIVLTQSPGTLSLSPGDRATLSCRASQSIRSIYLAWYQQKPGQAPRLLIHGASTRATGIPDRFSGSGSGTDFTLTISRLEPEDFAVYYCQQRVSSPYTFGQGTKLEIK
B14: H1H5769P (antibody, V domains shown)
VH: B13 VH with A33T, A40V, V48I, R58M, L86V, S87R, Y106F
VL: B13 VL with I29V, R30S, V93A, S94H
B15: H1H5751P (antibody)
chain 1: EVQLVESGGDLVQPGRSLRLSCAASGFTFDDYTMHWVRQAPGKGLEWVSIISWNGNTIDYADSVKGRFTISRDNAKNSLYLQMNSLRAEDTALYYCAKDKSGYGHFYYYVLDVWGQGTTVTVSS
chain 2: DIQMTQSPSSLSASVGDRVTITCRASQSINNYLNWYQQKPGKAPKLLIYAASSLQSGVPSRFSGSGSGTDFTLTISSLQPEDFATYYSQQSYSFPWTFGQGTKVEIK
B16: H1H5796B (antibody, V domains shown)
VH: EVQLVESGAEVKKPGASVKVSCKTSGYTFTGYYMHWIRQAPGQGLEWMGWINPKSGGTNYAQKFQGRVTMTRDTSISTAYMELSRLRSDDMAVYYCARMGDGAVFDFWGQGTLVTVSS
VL: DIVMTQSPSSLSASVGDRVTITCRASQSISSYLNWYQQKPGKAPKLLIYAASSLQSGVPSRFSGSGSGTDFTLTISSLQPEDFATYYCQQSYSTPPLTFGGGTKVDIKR
B17: H1H5786B (antibody, V domains shown)
VH: B16 VH with E1Q
VL: AIQMTQSPSSLSASVGDRVTITCRASQRISSFLNWYQQKPGKAPKLLIYTASNLQNGVPSRFSGSGSGTDFTLTISSLQPEDFATYYCQQSYRTPLTFGGGTKVEIKR
B18: H1H5761P (antibody, V domains shown)
VH: QVQLVESGGGVVQPGRSLRLSCAASGFTFSSYGMHWVRQAPGKGLEWVAVISYDGSNKYYADSVKGRFTISRDYSKNTLYLQMNSLRAEDTAVFYCAKGAMVRGVPYNYYYGMDVWGQGTTVTVSS
VL: DIQMTQSPSSLSASVGDRVTITCRASQGIRNDLGWFQQKPGKAPKRLIYAASSLQSGVPSRFSGSGSGTEFTLTISSLQPEDFATYYCLQHNSYPYTFGQGTKLEIK
B19: H1H5758B (antibody, V domains shown)
VH: B18 VH with Q1E, A49T, S52L, Y53H, K58R, Y74N, S85I, F94Y, A97T, Y109H
VL: DIVMTQSPSSLSASVGDRVTITCRASQGIRNDLGWYQQKPGKAPKRLIYAASNLQSGVPSRFSGSGSGTEFTLTISSLQPEDFATYYCLQHNSYPYTFGQGTKLEIKR
B20: H1H5764P (antibody, V domains shown)
VH: B18 VH with S30R, Y32F, S56N, N57Y, Y74N, F94H, Y109F
VL: B18 VL with G28V, F36Y, V58I
B21: H1M3549N (antibody, V domains shown)
VH: B10 VH with A23V, T28P, D30A, V70I, G88T, G107F
VL: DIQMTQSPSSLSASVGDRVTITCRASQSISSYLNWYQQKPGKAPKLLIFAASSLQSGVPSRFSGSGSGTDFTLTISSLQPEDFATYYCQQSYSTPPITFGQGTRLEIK
B22: H2M3541N (antibody, V domains shown)
VH: B10 VH with Q13R, S57T, V70I, G88P, G107Y
VL: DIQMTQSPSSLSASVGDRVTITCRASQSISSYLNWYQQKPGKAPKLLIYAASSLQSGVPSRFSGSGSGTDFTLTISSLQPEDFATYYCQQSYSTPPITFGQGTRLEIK
B23: H2M2710N (antibody, V domains shown)
VH: B12 VH with G23A, Y32F, T40A, Y53F, N56K, V70I, Q82E, L93V
VL: B12 VL with I29V, X38Q, I58V, Y86F, Y87H

Sequence of human CD3 epsilon/delta heterodimer, Fc-tagged (human) (chain, as listed by the source mutant, chain 1 of 2): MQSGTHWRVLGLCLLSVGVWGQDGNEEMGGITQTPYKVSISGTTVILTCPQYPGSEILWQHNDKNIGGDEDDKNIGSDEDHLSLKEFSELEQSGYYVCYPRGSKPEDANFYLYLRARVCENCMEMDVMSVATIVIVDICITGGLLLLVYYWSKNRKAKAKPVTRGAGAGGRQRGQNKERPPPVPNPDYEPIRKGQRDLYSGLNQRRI
Sequence of human CD3 epsilon/delta heterodimer, Fc-tagged (human) (chain, as listed by the source mutant, chain 2 of 2): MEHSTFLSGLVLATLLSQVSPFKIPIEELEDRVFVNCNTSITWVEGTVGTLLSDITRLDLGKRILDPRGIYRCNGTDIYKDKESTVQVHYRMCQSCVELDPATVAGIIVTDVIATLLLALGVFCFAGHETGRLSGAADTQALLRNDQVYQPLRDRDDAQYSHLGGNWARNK

One assay deals with T1, cynomolgus CD3 on T cells. In words: FACS.
Broadly, the EC50 is the concentration needed to bring the measured effect to its halfway point. Low values mean greater potency, high ones weaker potency. B1 displayed an EC50 of 3350 nM.
The same measure, in the same setting: for B2 the value was 890 nM; for B3, 19.6 nM; for B4, 170 nM.
Same read-out and setting: for B5 the value was 6140 nM.
Same read-out and setting: for B6 the value was 14.2 nM; for B7, 2170 nM.

Another assay has as its target T1, cynomolgus CD3 on T cells. The assay is described as follows: FACS. This is another data set of the same source. Background: In flow cytometry, cells or beads pass a laser one at a time.
On to B8, for which the binding result is on record as “no binding”.
The same measure, in the same setting: the same measure for B9: “no binding”.

Another assay addresses human CD3 epsilon/delta heterodimer, Fc-tagged (human). In words: SPR, 25C antibody-capture.
A word on the Kd: it is a measure of binding affinity in units of concentration. High values mean lower affinity, low ones higher affinity. B10 yielded a Kd of 30 nM.
On the same count and under the same terms, for B11 the value was 8.9 nM.
The same measure, in the same setting: for B12 the value was 20 nM.

For the next assay the target is unchanged. The assay is described as follows: SPR, 37C. (In SPR one partner is held on a chip, and binding of the other changes the refractive index at the surface.)
Molecule B1 came in with a Kd of 65.2 nM.
The same measure, in the same setting: for B2 the value was 11.1 nM.
Still for that read-out and setting: the same measure for B3: 19.4 nM; for B4: 53.3 nM; for B5: 334 nM.
Same read-out and setting: for B6 the value was 5.78 nM.
For the molecule B7, the Kd amounted to 122 nM.

The target of another assay is human CD3 on Jurkat cells (human). The assay is described as follows: FACS.
Sequence of human CD3 on Jurkat cells (human) (chain, as listed by the source, chain 1 of 2): as the sequence (chain, as listed by the source mutant, chain 1 of 2) above
Sequence of human CD3 on Jurkat cells (human) (chain, as listed by the source, chain 2 of 2): as the sequence (chain, as listed by the source mutant, chain 2 of 2) above
For the molecule B13, the midpoint of the response, the EC50, lay at 0.571 nM.
On the same count and under the same terms, for B14 the value was 4.1 nM; for B15, 2.12 nM; for B16, 9.82 nM.
In the case of B17, it took 1.1 nM to reach a half-maximal effect (EC50).
Still for that read-out and setting: the same measure for B18: 2.1 nM.
Still for that read-out and setting: for B19 the value was 1.9 nM; for B20, 0.88 nM.

Another assay addresses human CD3 epsilon/delta heterodimer, Fc-tagged (human). The assay is described as follows: SPR, 25C antigen-capture.
For the molecule B13, the Kd was 3.52 nM.
Still for that read-out and setting: for B14 the value was 4.41 nM.
Still for that read-out and setting: the same measure for B15: 3.42 nM; for B16: 2.32 nM.
On the same count and under the same terms, for B18 the value was 53.4 nM.
Molecule B20 had a Kd of 21 nM.

Another assay deals with human CD3 on Jurkat cells (human). The assay is described as follows: FACS. The source holds these as a separate data set.
The molecule B21 showed an EC50 of 2.3 nM.
B22 gave an EC50 of 3.7 nM.
Still for that read-out and setting: for B23 the value was 0.71 nM.

A further assay addresses human CD3 epsilon/delta heterodimer, Fc-tagged (human). In words: SPR, 37C. The source holds these as a separate data set.
Take B8: the binding result is “no binding”.
Still for that read-out and setting: the same measure for B9: “no binding”.

The next assay has the same target. In words: SPR, 25C antibody-capture. This is another data set of the same source.
On to B13, for which the Kd came to 224 nM.
Same read-out and setting: for B14 the value was 121 nM; for B15, 129 nM; for B16, 60.5 nM.
As for B18, the Kd stood at 5160 nM.

In the next assay the target is human CD3 on Jurkat cells (human). The assay is described as follows: FACS. The source holds these as a separate data set.
For B1, the midpoint of the response, the EC50, lay at 200 nM.
The same measure, in the same setting: for B2 the value was 18.3 nM.
Molecule B8 displayed an EC50 of approximately 1000 nM.
The same measure, in the same setting: the same measure for B9: 126 nM.
The same measure, in the same setting: for B4 the value was 31.9 nM.
Take B5: the concentration for a half-maximal effect (EC50) is 210 nM.
Still for that read-out and setting: the same measure for B7: 102 nM.
